CN106467574A (UNIV FUDAN, dated 2017)

What was measured:
[1] = biological target: 人源TF, 细胞表面TF (human tissue factor on the surface of human tumour cells) (human, UniProt P13726 33-295); test: cell-based or functional assay
[2] = biological target: T1, 鼠源TF (mouse tissue factor on B16-F10 cells) (mouse, UniProt P20352 29-294); test: flow cytometry on B16-F10 cells
T1 construct: whole, on cells
T1 sequence (looked up): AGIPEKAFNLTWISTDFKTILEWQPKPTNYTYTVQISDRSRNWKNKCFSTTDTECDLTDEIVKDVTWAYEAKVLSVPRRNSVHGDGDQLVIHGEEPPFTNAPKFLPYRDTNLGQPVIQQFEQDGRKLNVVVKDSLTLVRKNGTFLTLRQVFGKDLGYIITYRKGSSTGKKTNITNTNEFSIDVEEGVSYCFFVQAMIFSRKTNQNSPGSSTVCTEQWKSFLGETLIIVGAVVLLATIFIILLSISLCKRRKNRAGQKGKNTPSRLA

B1: TF-mAb-SC1 (antibody, IgG2b, V domains shown)
VH: QVQLQQPGAELVRPGASVKLSCKASGYSFISYWMNWVKQRPGQGLEWIGMIYPADSETRLNQKFKDKATLTVDKSSSTAYMQLSSPTSEDSAVYYCAREDYGSSDYWGQGTTLTVSS
VL: EILLTQSPAIIAASPGEKVTITCSASSSVSYMNWYLQKPGSSPKIWIYGISNLASGVPARFSGSGSGTSFSFTINSMETEDVATYYCQQKSSFPWTFGGGTKLEIK
notes: Mouse monoclonal antibody from a hybridoma, purified from ascites
抗FXa生成活性 IC50 (BxPC-3 cells) [1]: 9 nM
抗FXa生成活性 IC50 (MDA-MB-231 cells) [1]: 6.4 nM
binding result [2]: no binding (tested: 10μg/mL)
